According to patent US20220380473A1, “ANTI-GAL3 ANTIBODIES AND USES THEREOF” (TrueBinding, Inc., priority 2019, published 2022):

How the values were obtained:
[1] = tested on: MC38 murine colon adenocarcinoma cells; assay: Primary mouse MC38 colon tumor model; type: in vivo
Description: On the day of tumor implantation, MC38 murine colon adenocarcinoma cells were collected, washed and resuspended in PBS. Mice were anesthetized by inhalation anesthetic (3 to 5% Isoflurane in medical grade air). 5×10^5 cells in 0.1 mL PBS were subcutaneously injected into the right flank of mice by using a syringe with a 25-ga needle. On day 7, the tumor volumes were measured and mice were randomly assigned into two groups (n=8). […] The tumor volumes and body weights were monitored twice per week. The animals were humanely sacrificed when tumor volume reached 3000 mm^3. Results were expressed as mean±SEM.

[2] = target: T1, association of GAL3 and TIM3 (Homo sapiens, UniProt P17931); assay: GAL3-TIM3 blocking ELISA (Examples 24, 27); type: binding; conditions: 3 ug/mL antibody
T1 construct: full-length human Galectin-3 protein (Acro Biosystems, GA3-H5129); linker-spaced 6-histidine tag; purchased Acro Biosystems GA3-H5129 (Gal3); TM3-H5229 (TIM-3)
T1 sequence (P17931 2-250 limits assumed): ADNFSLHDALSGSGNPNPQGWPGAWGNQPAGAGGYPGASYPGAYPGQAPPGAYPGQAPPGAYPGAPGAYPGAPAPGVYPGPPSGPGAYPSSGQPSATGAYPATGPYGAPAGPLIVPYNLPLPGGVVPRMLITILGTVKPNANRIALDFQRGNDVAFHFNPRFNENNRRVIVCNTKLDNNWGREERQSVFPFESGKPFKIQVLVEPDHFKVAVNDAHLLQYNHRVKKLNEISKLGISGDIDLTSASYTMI
Description: Positively scoring wells were evaluated for the ability to block association of GAL3 and TIM3. To identify GAL3-targeted antibodies with the ability to block the interaction of GAL3 and TIM3, purified GAL3 and TIM3 proteins were incubated in the presence of GAL3-immunization hybridoma supernatants described above, or without antibody, and protein interaction was evaluated by ELISA. Human Galectin-3 protein (Acro Biosystems, GA3-H5129) was diluted in PBS (Corning, 21-030-CM) to a concentration of 3 μg/ml and added to the wells of a 96-well ELISA plate (Thermo Fisher, 44-2404-21). After incubating the plate at 4° C. overnight, the plate was washed three times with PBST (PBS with 0.05% Tween 20 [VWR, 0777]). The plate was then blocked for an hour with 2% BSA (EMD Millipore, 126609) in PBST at room temperature with gentle rocking. Thereafter, the 2% BSA in PBST was discarded and antibody or inhibitor (3-fold dilutions beginning at 20 μg/ml, 60 μg/ml, or 180 μM) in 2% BSA in PBST was added to the wells. Afterwards, 2 μg/ml of human TIM3 (Aero Biosystems, TM3-H5229) in 2% BSA in PBST was added to the antibody or inhibitor in the wells in a 1:1 ratio. The plate was incubated for an hour at room temperature with gentle rocking. Thereafter, the plate was washed three times with PBST, and 0.3 μg/ml of human TIM3 Biotinylated Antibody (R&D Systems, BAF2365) in 2% BSA in PBST was added to the wells. The plate was incubated for an hour with gentle rocking and then washed three times with PBST. Avidin-HRP (1:2000) was then added to the wells. The plate was incubated at room temperature for an hour with gentle rocking and then washed three times with PBST. TMB substrate (Thermo Scientific, 34029) was then added to each well. The reaction was stopped with 1M HCl (JT Baker, 5620-02) and read using a plate reader (Molecular Devices) at absorbance of 450 nm.

[3] = tested on: mouse bleomycin-induced lung fibrosis model; assay: Mouse bleomycin-induced lung fibrosis model; type: in vivo
Description: Fibrosis of the lung represents an additional significant form of fibrotic disease with significant health impacts in humans. To evaluate if the anti-fibrotic effects of GAL3-TIM3 blockade extend into the setting of lung fibrosis, a mouse bleomycin-induced lung fibrosis model was evaluated for sensitivity to mIMT001. Briefly, C57Blck/6 male mice were injected intra-tracheally with 30 ug of Bleomycin Sulfate (MP biomedicals, cat #190306) reconstituted in 50 ul of PBS. Mice were treated on day 18, 20, 22, and 24 with mIgG2b isotype control, anti-GAL3 antibody (mIMT001) (10 mg/kg) by tail vein injection, or small molecule TD139 (Med Chem Express, cat #HY-19940) at 10 uM in 50 ul of Captisol (Med Chem Express, cat #HY-17031) injected intra-tracheally. Mice were sacrificed on day 27 and lungs were surgically dissected and fixed in 4% paraformaldehyde for 24 hours, exchanged into 70% ethanol, and embedded in paraffin. Lung fibrosis in fixed specimens was evaluated by Masson's trichrome staining kit (26367) from Electron Microscopy Sciences (Hatfield, Pa.). […] lung sections were affixed to glass slides, After deparaffinization, rehydration in serial ethanol baths. Staining was performed by incubating in Bouin's fixative for 1 h at 56 degree, staining with Briebrich Scarlet/acid fuchsin, Phosphomolybdic Acid-Phosphotungstic Acid and Aniline Blue, then differentiated in acetic acid, prior to their dehydration, clearing and mounting.

hGal3 peptide = assay: Gal3 peptide library ELISA (Example 25); type: binding, human; conditions: peptide array ELISA
Description: To identify the epitopes to which Gal3 antibodies with and without Gal3-TIM3 blocking activity bound, a library of 20 amino acid peptides representing portions of Gal3, summarized in Table 24.1, was produced and the ability to bind Gal3 antibodies was evaluated by ELISA.
At least 2 μg/ml of hGal3 peptide in 50 μl of PBS or 0.1 μg/ml of full-length human Gal3 protein (GenScript) and human Galectin-3 protein (Acro Biosystems, GA3-H5129) were diluted in PBS (Corning, 21-030-CM) to concentrations of at least 2 μg/ml or 0.1 μg/ml, respectively, and added to the wells of a 96-well ELISA plate (Thermo Fisher, 44-2404-21). After incubating the plate at 4° C. overnight, the plate was washed three times with PBST (PBS with 0.05% Tween 20 [VWR, 0777]). The plate was then blocked for an hour with 2% BSA (EMD Millipore, 126609) in PBST at room temperature with gentle rocking. Thereafter, the 2% BSA in PBST was discarded and human Galectin-3 hybridoma supernatants or antibodies were diluted in 2% BSA in PBST to concentrations of at least 0.1 μg/ml and added to the wells. The plate was incubated for an hour at room temperature with gentle rocking and then washed three times with PBST. Afterwards, Goat Anti-Mouse IgG-HRP (Jackson ImmunoResearch, 115-036-1461) or Goat Anti-Rat IgG HRP (abcam, ab205720) diluted in 2% BSA in PBST (1:4000) were added to the wells. The plate was incubated for 30 minutes to 1 hour at room temperature with gentle rocking and then washed three times with PB ST. TMB substrate (Thermo Scientific, 34029) was then added to each well. The reaction was stopped with 1M HCl (JT Baker, 5620-02) and read using a plate reader (Molecular Devices) at absorbance of 450 nm.

- GAL3-TIM3 Blocking @ 3 ug/mL [2]: 80%
B1: IMT001: anti-Gal3 monoclonal antibody (Immutics); printed as mIMT001 (IMT001), murine (antibody, V domains shown)
VH: QIQLVQSGPELKKPGETVKISCKASGYTFTNYGMNWVKQAPGKGLKWMGWINTNTGEPTYVEEFKGRFAFSLETSASTAYLQINNLKNEDTATYFCAPYDNFFAYWGQGTLVTVSA
VL: DIVITQDELSNPVTSGESVSISCRSSKSLLYKDGKTYLNWFLQRPGQSPQLLIYLMSTHASGVSDRFSGSGSGTDFTLEISRVKAEDVGVYYCQQLVDYPLTFGAGTKLELK
- reduction of tumor burden ([1]; 10 mg/Kg i.p., day 24, vs isotype control): about 33%
- effect on tumor size ([1]; vs isotype control): much reduced tumor size
- Ashcroft score ([3]; 10 mg/kg tail vein day 18, 20, 22, 24, isotype 5.74): 4.09
- decrement in fibrotic injury ([3]; vs isotype control): 29%
- lung fibrosis, Masson's trichrome ([3]; vs isotype control): substantially reduced
- Gal3 peptide bound (hGal3 peptide): peptide 6
